These results are taken from patent publication US20160123962A1 (ALBERT EINSTEIN COLLEGE OF MEDICINE, published 2016).

B1: human tenascin-R (hTN-R) (other, UniProt Q92752 32-1358, looked up)
chain: QLEVTTERVQRQSVEEEGGIANYNTSSKEQPVVFNHVYNINVPLDNLCSSGLEASAEQEVSAEDETLAEYMGQTSDHESQVTFTHRINFPKKACPCASSAQVLQELLSRIEMLEREVSVLRDQCNANCCQESAATGQLDYIPHCSGHGNFSFESCGCICNEGWFGKNCSEPYCPLGCSSRGVCVDGQCICDSEYSGDDCSELRCPTDCSSRGLCVDGECVCEEPYTGEDCRELRCPGDCSGKGRCANGTCLCEEGYVGEDCGQRQCLNACSGRGQCEEGLCVCEEGYQGPDCSAVAPPEDLRVAGISDRSIELEWDGPMAVTEYVISYQPTALGGLQLQQRVPGDWSGVTITELEPGLTYNISVYAVISNILSLPITAKVATHLSTPQGLQFKTITETTVEVQWEPFSFSFDGWEISFIPKNNEGGVIAQVPSDVTSFNQTGLKPGEEYIVNVVALKEQARSPPTSASVSTVIDGPTQILVRDVSDTVAFVEWIPPRAKVDFILLKYGLVGGEGGRTTFRLQPPLSQYSVQALRPGSRYEVSVSAVRGTNESDSATTQFTTEIDAPKNLRVGSRTATSLDLEWDNSEAEVQEYKVVYSTLAGEQYHEVLVPRGIGPTTRATLTDLVPGTEYGVGISAVMNSQQSVPATMNARTELDSPRDLMVTASSETSISLIWTKASGPIDHYRITFTPSSGIASEVTVPKDRTSYTLTDLEPGAEYIISVTAERGRQQSLESTVDAFTGFRPISHLHFSHVTSSSVNITWSDPSPPADRLILNYSPRDEEEEMMEVSLDATKRHAVLMGLQPATEYIVNLVAVHGTVTSEPIVGSITTGIDPPKDITISNVTKDSVMVSWSPPVASFDYYRVSYRPTQVGRLDSSVVPNTVTEFTITRLNPATEYEISLNSVRGREESERICTLVHTAMDNPVDLIATNITPTEALLQWKAPVGEVENYVIVLTHFAVAGETILVDGVSEEFRLVDLLPSTHYTATMYATNGPLTSGTISTNFSTLLDPPANLTASEVTRQSALISWQPPRAEIENYVLTYKSTDGSRKELIVDAEDTWIRLEGLLENTDYTVLLQAAQDTTWSSITSTAFTTGGRVFPHPQDCAQHLMNGDTLSGVYPIFLNGELSQKLQVYCDMTTDGGGWIVFQRRQNGQTDFFRKWADYRVGFGNVEDEFWLGLDNIHRITSQGRYELRVDMRDGQEAAFASYDRFSVEDSRNLYKLRIGSYNGTAGDSLSYHQGRPFSTEDRDNDVAVTNCAMSYKGAWWYKNCHRTNLNGKYGESRHSQGINWYHWKGHEFSIPFVEMKMRPYNHRLMAGRKRQSLQF
notes: Extracellular matrix protein used as analyte in SPR
B2: human recombinant CSF-1 (colony stimulating factor-1) (ligand, UniProt P09603 36-253, looked up)
chain: SEYCSHMIGSGHLQSLQRLIDSQMETSCQITFEFVDQEQLKDPVCYLKKAFLLVQDIMEDTMRFRDNTPNAIAIVQLQELSLRLKSCFTKDYEEHDKACVRTFYETPLQLLEKVKNVFNETKNLLDKDWNIFSKNCNNSFAECSSQDVVTKPDCNCLYPKAIPSSDPASVSPHQPLAPSMAPVAGLTWEDSEGTEGSSLLPGEQPLHTVDPGSAKQRP
notes: also called hCSF-1
B3: FLAG-tagged human CSF-1 (ligand, UniProt P09603 33-255, looked up)
chain: EEVSEYCSHMIGSGHLQSLQRLIDSQMETSCQITFEFVDQEQLKDPVCYLKKAFLLVQDIMEDTMRFRDNTPNAIAIVQLQELSLRLKSCFTKDYEEHDKACVRTFYETPLQLLEKVKNVFNETKNLLDKDWNIFSKNCNNSFAECSSQDVVTKPDCNCLYPKAIPSSDPASVSPHQPLAPSMAPVAGLTWEDSEGTEGSSLLPGEQPLHTVDPGSAKQRPPR
notes: also called CSF-1-FLAG; not shown: FLAG tag
B4: human IL-34 (interleukin-34) (ligand, UniProt Q6ZMJ4 21-242, looked up)
chain: NEPLEMWPLTQNEECTVTGFLRDKLQYRSRLQYMKHYFPINYKISVPYEGVFRIANVTRLQRAQVSERELRYLWVLVSLSATESVQDVLLEGHPSWKYLQEVETLLLNVQQGLTDVEVSPKVESVLSLLNAPGPNLKLVRPKALLDNCFRVMELLYCSCCKQSSVLNWQDCEVPSPQSCSPEPSLQYAATQLYPPPPWSPSSPPHSTGSVRPVRAQGEGLLP
modifications: biotinylated with EZ-Link Sulfo-NHS-LC-LC-Biotin in the pull-down and flow cytometry assays; unlabelled in SPR
notes: Purified protein; also called hIL-34; biotinylated hIL-34
B5: FLAG-tagged human IL-34 (ligand, UniProt Q6ZMJ4 21-242, looked up)
chain: B4 chain
notes: also called IL-34-FLAG; not shown: FLAG tag

Assay [1] deals with human PTP-ζ (protein tyrosine phosphatase receptor type zeta) of U251 human glioblastoma cells (human) (UniProt P23471). Description: cell-based or functional assay.
Assay [2] concerns the target T1, human PTP-ζ extracellular domain fused to immunoglobulin Fc domain (hPTP-ζ-ECD-Fc) (human, UniProt P23471 25-1636).
T1 construct: also called full-length hPTP-ζ ECD-Fc; not shown: immunoglobulin Fc domain
The experiment in a line: SPR (Biacore 3000), hPTP-ζ ECD-Fc immobilized on CM5 chip, hTN-R as analyte, steady state model; TN-R with hPTP-ζ ECD-Fc. The method, then: (§1) SPR binding analyses were performed at 25° C. on Biacore instruments. […] The protein A surface was regenerated with 10 mM Glycine-HCl, pH 1.5. […] All sensorgrams were double-referenced.
(In general: SPR reads the build-up and loss of mass on a sensor chip optically.)

For assay [3], the target named is T2, human CSF-1R extracellular domain fused to immunoglobulin Fc domain (hCSF-1R-ECD-Fc) (human, UniProt P07333 20-517).
T2 construct: extracellular domain; not shown: immunoglobulin Fc domain
Description: SPR (Biacore T100), hCSF-1R-ECD-Fc captured on Protein A, hCSF-1 as analyte; hCSF-1 on hCSF-1R-ECD-Fc. The method, then:
as §1

Assay [4] deals with T3, human PTP-ζ (protein tyrosine phosphatase receptor type zeta) of U251 human glioblastoma cells (human, UniProt P23471 25-2315, chondroitin sulfate glycosaminoglycan chains (proteoglycan)).
T3 construct: Endogenous protein on intact U251 cells (flow cytometry) or in OG-solubilized U251 membrane lysates (pull-down); long (~400 kDa), non-glycosaminoglycanylated (300 kDa) and short (220 kDa) isoforms are present; U251 cells lack CSF-1R; also called PTP-β/ζ; cell-surface PTP-ζ
Description: flow cytometry on U251 cells, detection with biotin-labeled anti-FLAG M2 antibody, at concentrations equivalent to IL-34-FLAG. On the technique in general: In flow cytometry, cells or beads pass a laser one at a time.

The target of the next assay is T4, human brevican (human, UniProt Q96GW7 23-911, limits assumed).
T4 construct: Proteoglycan immobilized on the SPR chip
T4 sequence (looked up): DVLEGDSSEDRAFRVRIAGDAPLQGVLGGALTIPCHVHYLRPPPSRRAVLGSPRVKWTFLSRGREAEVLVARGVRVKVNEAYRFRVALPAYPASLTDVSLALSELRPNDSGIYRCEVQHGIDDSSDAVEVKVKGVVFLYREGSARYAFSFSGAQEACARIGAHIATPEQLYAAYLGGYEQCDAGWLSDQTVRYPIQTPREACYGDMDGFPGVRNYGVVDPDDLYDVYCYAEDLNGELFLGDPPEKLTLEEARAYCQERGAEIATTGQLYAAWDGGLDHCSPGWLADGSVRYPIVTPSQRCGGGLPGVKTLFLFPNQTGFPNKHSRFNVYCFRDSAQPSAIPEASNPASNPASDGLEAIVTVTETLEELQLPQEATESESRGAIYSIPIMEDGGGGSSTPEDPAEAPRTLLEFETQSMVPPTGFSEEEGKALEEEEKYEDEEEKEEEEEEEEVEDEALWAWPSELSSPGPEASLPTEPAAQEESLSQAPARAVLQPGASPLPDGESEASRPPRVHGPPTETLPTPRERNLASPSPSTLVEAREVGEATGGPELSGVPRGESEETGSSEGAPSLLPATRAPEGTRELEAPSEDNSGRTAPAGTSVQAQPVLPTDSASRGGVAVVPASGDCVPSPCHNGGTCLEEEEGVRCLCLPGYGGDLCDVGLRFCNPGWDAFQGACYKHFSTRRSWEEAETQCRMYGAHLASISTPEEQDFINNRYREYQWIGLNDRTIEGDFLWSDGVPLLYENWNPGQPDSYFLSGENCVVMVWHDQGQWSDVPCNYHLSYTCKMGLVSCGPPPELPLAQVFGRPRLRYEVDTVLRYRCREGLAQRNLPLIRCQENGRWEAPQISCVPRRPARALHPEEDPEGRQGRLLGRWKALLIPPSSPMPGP
The experiment in a line: SPR, brevican immobilized on the chip, hIL-34 as analyte; IL-34 with human brevican. The method, then:
as §1

Assay [5] addresses T2, human CSF-1R extracellular domain fused …. The experiment in a line: SPR (Biacore T100), hCSF-1R-ECD-Fc captured on Protein A, hIL-34 as analyte; hIL-34 on hCSF-1R-ECD-Fc. As to the method:
as §1

The assay “human tenascin-R (hTN-R)” concerns the target B1. Description: SPR (Biacore 3000), IL-34 immobilized on CM5 chip, hTN-R as analyte, steady state model; IL-34 with hTN-R. As to the method:
as §1

For assay [6], the target named is T1, human PTP-ζ extracellular domain fused …. Description: SPR (Biacore T100), hPTP-ζ-ECD-Fc captured on Protein A, hIL-34 as analyte, steady state model; hIL-34 on full-length hPTP-ζ ECD-Fc. As to the method: as §1
In assay [7] the target is T3, human PTP-ζ (protein tyrosine …). The experiment in a line: flow cytometry on U251 cells, detection with biotin-labeled anti-FLAG M2 antibody.

T2 sequence (P07333 20-517): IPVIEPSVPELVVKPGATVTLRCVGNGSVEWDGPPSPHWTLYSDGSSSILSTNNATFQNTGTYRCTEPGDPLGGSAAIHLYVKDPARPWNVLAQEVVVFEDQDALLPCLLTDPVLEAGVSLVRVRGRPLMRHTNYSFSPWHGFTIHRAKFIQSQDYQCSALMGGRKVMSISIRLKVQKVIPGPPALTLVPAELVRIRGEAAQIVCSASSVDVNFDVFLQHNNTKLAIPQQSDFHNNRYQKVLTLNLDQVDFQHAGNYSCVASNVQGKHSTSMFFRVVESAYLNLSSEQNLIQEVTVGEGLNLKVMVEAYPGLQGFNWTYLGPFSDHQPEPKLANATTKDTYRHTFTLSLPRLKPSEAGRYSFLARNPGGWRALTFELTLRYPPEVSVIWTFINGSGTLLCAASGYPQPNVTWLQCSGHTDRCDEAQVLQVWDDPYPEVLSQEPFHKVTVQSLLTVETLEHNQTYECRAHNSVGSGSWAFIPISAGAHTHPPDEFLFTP
T1 sequence (P23471 25-1636): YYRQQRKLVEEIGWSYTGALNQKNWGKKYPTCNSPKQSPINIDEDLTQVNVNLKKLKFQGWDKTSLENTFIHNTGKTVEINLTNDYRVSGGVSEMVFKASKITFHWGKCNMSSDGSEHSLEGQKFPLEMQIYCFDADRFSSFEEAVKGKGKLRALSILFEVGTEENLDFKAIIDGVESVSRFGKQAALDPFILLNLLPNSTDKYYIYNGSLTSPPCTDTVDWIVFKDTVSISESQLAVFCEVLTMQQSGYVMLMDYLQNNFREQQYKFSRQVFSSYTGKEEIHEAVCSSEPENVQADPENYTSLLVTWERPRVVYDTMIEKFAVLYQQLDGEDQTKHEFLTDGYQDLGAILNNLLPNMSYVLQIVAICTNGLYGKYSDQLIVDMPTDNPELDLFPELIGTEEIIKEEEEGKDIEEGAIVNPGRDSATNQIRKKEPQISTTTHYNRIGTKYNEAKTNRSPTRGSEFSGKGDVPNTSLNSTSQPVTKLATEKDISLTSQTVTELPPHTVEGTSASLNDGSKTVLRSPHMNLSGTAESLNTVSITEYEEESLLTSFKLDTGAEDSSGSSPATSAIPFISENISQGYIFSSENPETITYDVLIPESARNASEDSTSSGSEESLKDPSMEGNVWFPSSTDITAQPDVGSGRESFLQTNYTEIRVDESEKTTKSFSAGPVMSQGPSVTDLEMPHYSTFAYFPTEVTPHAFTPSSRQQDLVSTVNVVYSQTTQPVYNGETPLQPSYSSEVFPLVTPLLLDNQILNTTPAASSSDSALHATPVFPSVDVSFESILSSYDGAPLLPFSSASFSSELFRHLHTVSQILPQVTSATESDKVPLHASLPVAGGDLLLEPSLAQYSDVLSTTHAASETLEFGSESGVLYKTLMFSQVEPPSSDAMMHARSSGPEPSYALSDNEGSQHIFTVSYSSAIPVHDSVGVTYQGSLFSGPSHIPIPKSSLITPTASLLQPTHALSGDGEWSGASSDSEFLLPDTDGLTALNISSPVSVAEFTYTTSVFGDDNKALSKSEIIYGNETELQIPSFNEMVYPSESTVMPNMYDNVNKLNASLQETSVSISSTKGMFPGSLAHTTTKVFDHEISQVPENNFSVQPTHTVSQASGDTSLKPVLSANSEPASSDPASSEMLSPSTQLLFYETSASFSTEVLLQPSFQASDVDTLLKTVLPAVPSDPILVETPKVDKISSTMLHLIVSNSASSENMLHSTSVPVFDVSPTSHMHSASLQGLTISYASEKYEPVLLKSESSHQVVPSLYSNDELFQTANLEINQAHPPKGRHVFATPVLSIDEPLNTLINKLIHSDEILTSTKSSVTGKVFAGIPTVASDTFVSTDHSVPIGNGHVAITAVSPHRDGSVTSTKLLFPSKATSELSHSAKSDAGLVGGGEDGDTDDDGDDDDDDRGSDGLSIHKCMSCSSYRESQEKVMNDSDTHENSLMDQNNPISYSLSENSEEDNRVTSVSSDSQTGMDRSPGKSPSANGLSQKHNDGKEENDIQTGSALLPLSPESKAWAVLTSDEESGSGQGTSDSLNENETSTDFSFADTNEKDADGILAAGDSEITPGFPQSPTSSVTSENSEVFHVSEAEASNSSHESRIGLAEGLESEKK
Chain of human PTP-ζ (protein tyrosine phosphatase receptor type zeta) of U251 human glioblastoma cells (human) (P23471 25-2315 limits assumed): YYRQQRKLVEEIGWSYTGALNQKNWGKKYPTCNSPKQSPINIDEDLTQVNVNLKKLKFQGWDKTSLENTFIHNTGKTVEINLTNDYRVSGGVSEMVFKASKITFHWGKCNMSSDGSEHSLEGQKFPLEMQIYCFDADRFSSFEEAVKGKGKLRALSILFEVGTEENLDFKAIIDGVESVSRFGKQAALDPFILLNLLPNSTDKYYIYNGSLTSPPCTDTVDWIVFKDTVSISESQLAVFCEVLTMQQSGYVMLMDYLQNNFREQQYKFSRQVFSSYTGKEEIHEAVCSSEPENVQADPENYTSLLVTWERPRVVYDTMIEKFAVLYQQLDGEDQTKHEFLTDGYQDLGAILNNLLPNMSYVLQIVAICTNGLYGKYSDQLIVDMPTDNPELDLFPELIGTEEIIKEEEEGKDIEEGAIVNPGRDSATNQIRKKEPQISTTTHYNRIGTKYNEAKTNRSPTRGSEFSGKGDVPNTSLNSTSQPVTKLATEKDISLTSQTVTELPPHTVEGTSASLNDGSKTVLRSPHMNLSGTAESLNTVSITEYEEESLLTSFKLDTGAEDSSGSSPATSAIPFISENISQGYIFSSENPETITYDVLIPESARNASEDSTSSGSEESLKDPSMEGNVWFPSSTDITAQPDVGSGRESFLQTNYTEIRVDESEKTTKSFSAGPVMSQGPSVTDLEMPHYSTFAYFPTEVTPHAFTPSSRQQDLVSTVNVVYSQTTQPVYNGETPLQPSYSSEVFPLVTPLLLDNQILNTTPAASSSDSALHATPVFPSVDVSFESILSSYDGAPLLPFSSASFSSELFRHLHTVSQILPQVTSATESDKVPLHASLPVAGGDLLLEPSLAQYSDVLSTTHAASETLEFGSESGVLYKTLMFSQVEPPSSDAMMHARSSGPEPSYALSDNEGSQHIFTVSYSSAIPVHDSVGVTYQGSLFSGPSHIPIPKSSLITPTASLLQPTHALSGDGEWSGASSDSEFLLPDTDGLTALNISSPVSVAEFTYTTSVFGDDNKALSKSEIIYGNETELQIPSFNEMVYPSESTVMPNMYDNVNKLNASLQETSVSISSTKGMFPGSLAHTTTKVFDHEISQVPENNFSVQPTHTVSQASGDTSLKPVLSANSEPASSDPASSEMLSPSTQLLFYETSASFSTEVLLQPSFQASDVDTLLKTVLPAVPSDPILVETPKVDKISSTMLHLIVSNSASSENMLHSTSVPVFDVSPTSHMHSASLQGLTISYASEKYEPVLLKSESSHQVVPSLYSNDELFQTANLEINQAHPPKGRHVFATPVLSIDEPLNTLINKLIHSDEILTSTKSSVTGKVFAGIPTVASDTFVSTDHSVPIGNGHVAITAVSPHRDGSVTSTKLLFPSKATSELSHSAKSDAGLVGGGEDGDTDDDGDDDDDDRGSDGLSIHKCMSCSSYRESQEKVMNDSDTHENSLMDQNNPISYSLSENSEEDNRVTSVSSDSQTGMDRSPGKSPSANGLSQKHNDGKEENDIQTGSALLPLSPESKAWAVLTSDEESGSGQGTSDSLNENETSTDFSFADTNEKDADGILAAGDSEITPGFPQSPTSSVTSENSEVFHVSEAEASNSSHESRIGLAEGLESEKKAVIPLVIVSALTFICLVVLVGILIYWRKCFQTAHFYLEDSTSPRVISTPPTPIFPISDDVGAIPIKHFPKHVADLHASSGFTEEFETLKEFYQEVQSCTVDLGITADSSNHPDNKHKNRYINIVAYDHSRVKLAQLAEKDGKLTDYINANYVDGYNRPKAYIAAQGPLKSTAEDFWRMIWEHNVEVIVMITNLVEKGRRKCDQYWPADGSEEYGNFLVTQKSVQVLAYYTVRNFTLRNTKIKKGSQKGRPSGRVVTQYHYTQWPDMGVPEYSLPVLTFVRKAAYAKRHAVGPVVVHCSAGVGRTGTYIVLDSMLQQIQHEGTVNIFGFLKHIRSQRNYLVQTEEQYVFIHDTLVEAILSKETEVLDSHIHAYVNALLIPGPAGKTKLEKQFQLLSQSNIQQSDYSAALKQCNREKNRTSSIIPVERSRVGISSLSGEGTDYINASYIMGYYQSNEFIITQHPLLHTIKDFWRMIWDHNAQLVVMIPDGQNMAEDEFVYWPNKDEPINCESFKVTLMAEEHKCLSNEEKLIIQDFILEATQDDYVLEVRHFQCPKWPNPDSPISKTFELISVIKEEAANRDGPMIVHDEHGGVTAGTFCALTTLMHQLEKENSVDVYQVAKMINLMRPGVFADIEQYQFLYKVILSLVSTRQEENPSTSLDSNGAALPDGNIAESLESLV
T3 sequence (P23471 25-2315 limits assumed): as above

As for “human pleiotrophin (hPTN) (from UniProt P21246 33-168) (ligand)”, in assay [1], the clonogenicity of U251 cells (colony count at 8 days) is 53% and the wound healing of U251 monolayer, time taken for 50% wound closure (t50) is 10 h. A word on the Kd: it is the concentration at which binding is half-saturated. A higher Kd goes with weaker binding. Consider B1, for which the Kd in assay [2] was approximately 10 nM. As for B2, the dissociation constant Kd in assay [3] was approximately 0.01 nM. B3: the binding result in assay [4] is “no binding”. On to B4, for which the dissociation constant Kd with human brevican is 3000 nM; in assay [5] it was approximately 0.001 nM; with human tenascin-R (hTN-R), approximately 1000 nM; in assay [6], approximately 100 nM. Turning to B5, the binding result in assay [7] is recorded as “binds”.
